Reference: the Immune Epitope Database (IEDB)

Biological target: HLA-A*02:01
Assay: IEDB peptide-MHC binding, purified MHC/competitive/radioactivity; filed as Kd, often an IC50 or EC50 that approximates it; ≥ and ≤ were set here for values at or beyond the usual limits of such assays
[1] = source organism: Hepatitis B virus subtype ayw

Sequence | Kd (source organism: Homo sapiens) | Kd [1] | further results
ALSRKVAELV | ≥ 50 µM | – | –
PLTSIISAV | 3.33 µM | – | –
DLVVSYVNV | – | – | Kd (source organism: Hepatitis B virus): ≥ 50 µM
HLSLRGLPV | – | 12.5 µM | –
PLERFAELV | ≥ 50 µM | – | –
GLRDLAVAV | – | – | Kd (source organism: Hepatitis C virus (isolate Taiwan)): 1.47 µM
ELRHYSDSV | – | – | Kd (source organism: human papillomavirus 18): ≥ 50 µM
FLCILLLCLI | – | – | Kd (source organism: Hepatitis B virus adw/Indonesia/PIDW420): 2.38 µM
NMGLKFRQL | – | ≥ 50 µM | –
LLYQTFGRKL | – | ≥ 50 µM | –
KLPGLLSRDL | ≥ 50 µM | – | –
CLTFGRETV | – | ≥ 50 µM | –
DLFGIWSKV | ≥ 25 µM | – | –
HLEGKVILV | – | – | Kd (source organism: HIV-1 M:B_MN): 8.33 µM
RLCVQSTHV | – | – | Kd (source organism: Human papillomavirus 16): 16.7 µM
ELHPDKWTV | – | – | Kd (source organism: HIV-1 M:B_MN): ≥ 50 µM
PLSYQHFRRL | – | ≥ 50 µM | –
RMRGTFSAPL | – | 0.046 µM | –
DLESEFQAAL | ≥ 50 µM | – | –
NMGLKFRQLL | – | ≥ 50 µM | –
ILCWGELMTL | – | 0.026 µM | –
SLQLVFGIEL | 0.102 µM | – | –
